Test results reported in the Immune Epitope Database (IEDB).

Assays:
Experiment in all cases: IEDB peptide-MHC binding, purified MHC/competitive/radioactivity; filed as Kd, often an IC50 or EC50 that approximates it; ≥ and ≤ were set here for values at or beyond the usual limits of such assays
HLA-A*02:03 = target: HLA-A*02:03
HLA-A*02:02 = target: HLA-A*02:02
HLA-A*02:06 = target: HLA-A*02:06
HLA-A*33:01 = settings: source organism: Vaccinia virus WR
HLA-A*03:01 = settings: source organism: Vaccinia virus WR
HLA-A*68:01 = settings: source organism: Vaccinia virus WR
HLA-A*11:01 = settings: source organism: Vaccinia virus WR
HLA-A*31:01 = settings: source organism: Vaccinia virus WR
[1] = source organism: SARS coronavirus Tor2
[2] = source organism: Vaccinia virus WR
[3] = source organism: Dengue virus 2 Jamaica/1409/1983
[4] = source organism: Lymphocytic choriomeningitis virus (strain Armstrong)
[5] = source organism: Mammarenavirus guanaritoense
[6] = source organism: Vaccinia virus Copenhagen
[7] = source organism: Mammarenavirus brazilense

ALVSGTATA was tested, and the Kd (HLA-A*02:03; [1]) was 8.1 nM, the Kd (HLA-A*02:02; [1]) was 4.63 nM and the Kd (HLA-A*02:06; [1]) was 269 nM.
AQMGTLLIA was tested, and the Kd (HLA-A*02:03; [1]) was 1.55 nM, the Kd (HLA-A*02:02; [1]) was 64.5 nM and the Kd (HLA-A*02:06; [1]) was 0.442 nM.
In the case of CTSEIQNVT, the Kd (HLA-A*02:03; [2]) is reported as 5180 nM, the Kd (HLA-A*02:02; [2]) is reported as 188 nM and the Kd (HLA-A*02:06; [2]) is reported as 10200 nM.
In the case of CVRLNNPVIL, the Kd (HLA-A*02:03; [2]) is reported as 5400 nM, the Kd (HLA-A*02:02; [2]) is reported as 8560 nM and the Kd (HLA-A*02:06; [2]) is reported as no less than 45100 nM.
DLNRMPTDML showed a Kd (HLA-A*02:03; [2]) of 2190 nM, a Kd (HLA-A*02:02; [2]) of 1250 nM and a Kd (HLA-A*02:06; [2]) of no less than 47500 nM.
Sequence DQDTMLFASA has a Kd (HLA-A*02:03; [2]) of 663 nM, a Kd (HLA-A*02:02; [2]) of 891 nM and a Kd (HLA-A*02:06; [2]) of 1720 nM.
Sequence DQTHIKTIAV has a Kd (HLA-A*02:03; [2]) of 390 nM, a Kd (HLA-A*02:02; [2]) of 2170 nM and a Kd (HLA-A*02:06; [2]) of 1000 nM.
Work on DTEFINKFL yielded a Kd (HLA-A*02:03; [2]) of no less than 42700 nM, a Kd (HLA-A*02:02; [2]) of 7420 nM and a Kd (HLA-A*02:06; [2]) of no less than 77100 nM.
Work on DTMSIYIAVA yielded a Kd (HLA-A*02:03; [2]) of 23.7 nM, a Kd (HLA-A*02:02; [2]) of 19.5 nM and a Kd (HLA-A*02:06; [2]) of 1480 nM.
EAKTHFSTT gave a Kd (HLA-A*02:03; [2]) of no less than 25100 nM, a Kd (HLA-A*02:02; [2]) of no less than 36600 nM and a Kd (HLA-A*02:06; [2]) of no less than 55300 nM.
For ETFPNVHEHI, the Kd (HLA-A*02:03; [2]) was 6620 nM, the Kd (HLA-A*02:02; [2]) was 8020 nM and the Kd (HLA-A*02:06; [2]) was no less than 69800 nM.
For FLQISRVNDL, the Kd (HLA-A*02:03; [2]) was 67.1 nM, the Kd (HLA-A*02:02; [2]) was 5.18 nM and the Kd (HLA-A*02:06; [2]) was 583 nM.
For FMTATPPGAT, the Kd (HLA-A*02:03; source organism: Dengue virus 4 Philippines/H241/1956) was 29.4 nM.
Work on FTDCRTIDAI yielded a Kd (HLA-A*02:03; [2]) of 12800 nM, a Kd (HLA-A*02:02; [2]) of 9440 nM and a Kd (HLA-A*02:06; [2]) of 751 nM.
Sequence FTHTTAFFNT has a Kd (HLA-A*02:03; [2]) of 10200 nM, a Kd (HLA-A*02:02; [2]) of 17200 nM and a Kd (HLA-A*02:06; [2]) of 51 nM.
FVVNGHTCM showed a Kd (HLA-A*02:03; [2]) of 5900 nM, a Kd (HLA-A*02:02; [2]) of 6640 nM and a Kd (HLA-A*02:06; [2]) of 1810 nM.
With GLKIEEIEKV the Kd (HLA-A*02:03; [2]) was 6.61 nM, the Kd (HLA-A*02:02; [2]) was 14.9 nM and the Kd (HLA-A*02:06; [2]) was 198 nM.
GLKSKTHAV gave a Kd (HLA-A*02:03; source organism: Homo sapiens) of 1.58 nM.
GMCCIITASI showed a Kd (HLA-A*02:03; [3]) of 84.1 nM.
HIGHHYIWI gave a Kd (HLA-A*02:03; [2]) of 899 nM, a Kd (HLA-A*02:02; [2]) of 2550 nM and a Kd (HLA-A*02:06; [2]) of no less than 25300 nM.
With IAIFNNRNLA the Kd (HLA-A*02:03; [2]) was 1480 nM, the Kd (HLA-A*02:02; [2]) was 3360 nM and the Kd (HLA-A*02:06; [2]) was 890 nM.
Work on ILASFSAST yielded a Kd (HLA-A*02:03; [1]) of 5.27 nM, a Kd (HLA-A*02:02; [1]) of 1.62 nM and a Kd (HLA-A*02:06; [1]) of 457 nM.
ITRLEVIGLT showed a Kd (HLA-A*02:03; [2]) of 219 nM, a Kd (HLA-A*02:02; [2]) of 2210 nM and a Kd (HLA-A*02:06; [2]) of 967 nM.
Work on IVILFIMFM yielded a Kd (HLA-A*02:03; [2]) of 1680 nM, a Kd (HLA-A*02:02; [2]) of 1860 nM and a Kd (HLA-A*02:06; [2]) of 741 nM.
KCMSAALKNL showed a Kd (HLA-A*02:03; [4]) of 192 nM, a Kd (HLA-A*02:02; [4]) of 57.9 nM and a Kd (HLA-A*02:06; [4]) of 14000 nM.
KLPTWLGAAI gave a Kd (HLA-A*02:03; [2]) of 123 nM, a Kd (HLA-A*02:02; [2]) of 103 nM and a Kd (HLA-A*02:06; [2]) of 295 nM.
Work on KLTKDRKML yielded a Kd (HLA-A*02:03; [2]) of no less than 36400 nM, a Kd (HLA-A*02:02; [2]) of no less than 24500 nM and a Kd (HLA-A*02:06; [2]) of no less than 77100 nM.
Work on KNAGYLVGR yielded a Kd (HLA-A*02:03; [5]) of no less than 78100 nM, a Kd (HLA-A*02:02; [5]) of no less than 45600 nM and a Kd (HLA-A*02:06; [5]) of no less than 77000 nM.
With KQLGQVMLLI the Kd (HLA-A*02:06; [3]) was 11 nM.
LLDEPLSPDT was tested, and the Kd (HLA-A*02:03; [2]) was 10100 nM, the Kd (HLA-A*02:02; [2]) was 8510 nM and the Kd (HLA-A*02:06; [2]) was 7840 nM.
Work on LLTDTIESA yielded a Kd (HLA-A*02:03; [2]) of 10.5 nM, a Kd (HLA-A*02:02; [2]) of 16.6 nM and a Kd (HLA-A*02:06; [2]) of 5.88 nM.
With LLVTLAILTA the Kd (HLA-A*02:03; [1]) was 42.9 nM, the Kd (HLA-A*02:02; [1]) was 4.39 nM and the Kd (HLA-A*02:06; [1]) was 32.2 nM.
Sequence LMDCIIFES has a Kd (HLA-A*02:03; [4]) of 825 nM, a Kd (HLA-A*02:02; [4]) of 30.1 nM and a Kd (HLA-A*02:06; [4]) of 300 nM.
LQQNNSFII gave a Kd (HLA-A*02:03; [2]) of 5170 nM, a Kd (HLA-A*02:02; [2]) of 11700 nM and a Kd (HLA-A*02:06; [2]) of 423 nM.
LSYSQTMLL showed a Kd (HLA-A*02:03; [4]) of 11300 nM, a Kd (HLA-A*02:02; [4]) of 2110 nM and a Kd (HLA-A*02:06; [4]) of 3720 nM.
For LVFNSISARA, the Kd (HLA-A*02:03; [2]) was 254 nM, the Kd (HLA-A*02:02; [2]) was 1270 nM and the Kd (HLA-A*02:06; [2]) was 702 nM.
In the case of LVSKHWELT, the Kd (HLA-A*02:03; [2]) is reported as 14900 nM, the Kd (HLA-A*02:02; [2]) is reported as 12200 nM and the Kd (HLA-A*02:06; [2]) is reported as no less than 77100 nM.
MLDDFSAGA was tested, and the Kd (HLA-A*02:03; [2]) was 73.1 nM, the Kd (HLA-A*02:02; [2]) was 68.4 nM and the Kd (HLA-A*02:06; [2]) was 114 nM.
NIKISLNEI showed a Kd (HLA-A*02:03; [2]) of 31 nM, a Kd (HLA-A*02:02; [2]) of 1670 nM and a Kd (HLA-A*02:06; [2]) of 1500 nM.
NLEELTTVFI gave a Kd (HLA-A*02:03; [2]) of 6500 nM, a Kd (HLA-A*02:02; [2]) of 418 nM and a Kd (HLA-A*02:06; [2]) of 12300 nM.
In the case of NLFDIPLLT, the Kd (HLA-A*02:03; [6]) is reported as 36.3 nM, the Kd (HLA-A*02:02; [6]) is reported as 135 nM and the Kd (HLA-A*02:06; [6]) is reported as 1540 nM.
PLNEAIMAV showed a Kd (HLA-A*02:03; [3]) of 18.3 nM.
Sequence QLVKDESIQL has a Kd (HLA-A*02:03; [2]) of 130 nM, a Kd (HLA-A*02:02; [2]) of 157 nM and a Kd (HLA-A*02:06; [2]) of 1810 nM.
RARFIGGYIK gave a Kd (HLA-A*33:01) of 11700 nM, a Kd (HLA-A*03:01) of 629 nM and a Kd (HLA-A*68:01) of 92.9 nM. For the same sequence, the Kd (HLA-A*11:01) was 16.8 nM and the Kd (HLA-A*31:01) was 59.4 nM.
For RIVTVTTKDY, the Kd (HLA-A*33:01) was no less than 70000 nM, the Kd (HLA-A*03:01) was 427 nM and the Kd (HLA-A*68:01) was 1550 nM. The Kd (HLA-A*11:01) was 600 nM and the Kd (HLA-A*31:01) was 18300 nM.
With RLAANAICSA the Kd (HLA-A*02:03; [3]) was 127 nM.
In the case of RLLKNMKQCT, the Kd (HLA-A*02:03; [2]) is reported as 3140 nM, the Kd (HLA-A*02:02; [2]) is reported as no less than 46800 nM and the Kd (HLA-A*02:06; [2]) is reported as 11900 nM.
RMPTDMLKL gave a Kd (HLA-A*02:03; [2]) of 106 nM, a Kd (HLA-A*02:02; [2]) of 950 nM and a Kd (HLA-A*02:06; [2]) of 678 nM.
Sequence RSASGGVYL has a Kd (HLA-A*02:03; [7]) of 14500 nM, a Kd (HLA-A*02:02; [7]) of 278 nM and a Kd (HLA-A*02:06; [7]) of 13600 nM.
Sequence RSTIFDIVSK has a Kd (HLA-A*33:01) of 6500 nM, a Kd (HLA-A*03:01) of 81.3 nM and a Kd (HLA-A*68:01) of 79.2 nM. For the same sequence, the Kd (HLA-A*11:01) was 1.97 nM and the Kd (HLA-A*31:01) was 222 nM.
RTFNEDLFR gave a Kd (HLA-A*33:01) of 1570 nM, a Kd (HLA-A*03:01) of 73.5 nM and a Kd (HLA-A*68:01) of 22.3 nM. It also gave a Kd (HLA-A*11:01) of 15.1 nM and a Kd (HLA-A*31:01) of 17.6 nM.
RTRLYDYFTR gave a Kd (HLA-A*33:01) of 1630 nM, a Kd (HLA-A*03:01) of 6060 nM and a Kd (HLA-A*68:01) of 1450 nM. For the same sequence, the Kd (HLA-A*11:01) was 991 nM and the Kd (HLA-A*31:01) was 0.7 nM.
